{"source": "patent US20070105771A1", "about": "(Y S THERAPEUTICS, published 2007)", "binders": {"B1": {"name": "rhuMAb 420 (antibody, human IgG1, V domains shown)", "VH": "EVQLVESGGGVKQPGETLRLTCTASGFSLSTYGVHWVRQAPGKGLEWVGVIWGDGRTDYDAAFMSRVTISKDTSKSTVYLQMNSLRAEDTAVYYCMRNRHDWFDYWGQGTTVTVSS", "VL": "EIEMTQSPSSLSVSAGERATISCSASQDIRNSLNWYQQKPGQAPRLLIYYSSNLHTGVPARFSGSGSGTDFTLTISRLEPEDVAIYYCQQSNKLPLTFGSGTKVEIKR", "notes": "X420 VH and X380 VL with human IgG1 and human kappa constant regions; also called X420 (IgG1)"}, "B2": {"name": "CM03 Fab X369 (Fab, V domains shown)", "VH": "QVKLQESGPGLVQPSQTLSITCTVSGFSLTTYGVHWVRQSPGKGLEWLGVIWGGGRTDYDAAFISRLSISKDNSKSQVFFKMNSLQANDTAIYYCVRNRHDWFDYWGQGTTVTVSS", "VL": "DIQMTQSPSSLSASLGDRVTITCSASQGIRNSLNWYQQKPDGAVKLLIYYSSNLHSGVPSRFSGSGSGTDFSLTISNLEPEDIATYYCQQSIKLPFTFGSGTKLEIK", "notes": "Recombinant Fab made in E. coli; also called CM03 X369; CM03 (X369)"}}, "key": {"[1]": {"biological_target": "human CD26 on the cell surface (human, UniProt P27487 1-766)", "sequence (P27487 whole entry)": "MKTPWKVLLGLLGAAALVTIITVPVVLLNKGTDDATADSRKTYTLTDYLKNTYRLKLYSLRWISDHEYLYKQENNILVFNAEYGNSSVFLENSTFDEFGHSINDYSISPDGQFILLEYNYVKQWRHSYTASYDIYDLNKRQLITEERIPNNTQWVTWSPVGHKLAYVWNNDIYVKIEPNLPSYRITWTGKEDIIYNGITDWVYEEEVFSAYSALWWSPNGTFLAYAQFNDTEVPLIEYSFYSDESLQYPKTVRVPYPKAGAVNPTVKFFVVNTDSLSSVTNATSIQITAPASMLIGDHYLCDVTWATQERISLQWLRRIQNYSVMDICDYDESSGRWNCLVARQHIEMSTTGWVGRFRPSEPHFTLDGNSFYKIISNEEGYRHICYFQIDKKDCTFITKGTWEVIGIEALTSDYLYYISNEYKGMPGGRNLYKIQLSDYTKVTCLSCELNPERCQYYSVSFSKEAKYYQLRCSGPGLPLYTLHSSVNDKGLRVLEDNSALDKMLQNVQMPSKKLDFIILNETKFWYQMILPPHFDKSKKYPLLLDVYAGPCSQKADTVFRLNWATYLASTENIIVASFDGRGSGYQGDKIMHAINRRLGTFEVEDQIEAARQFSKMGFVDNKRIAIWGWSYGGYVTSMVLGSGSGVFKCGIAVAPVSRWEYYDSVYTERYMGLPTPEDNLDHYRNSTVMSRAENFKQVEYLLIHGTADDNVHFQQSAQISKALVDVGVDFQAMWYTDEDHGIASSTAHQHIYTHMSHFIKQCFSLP", "experiment": "cell-based or functional assay"}, "[2]": {"biological_target": "T1, human CD26-derived 13 mer peptide 26 (human)", "T1 peptide": "FGHSINDYSISPD", "experiment": "peptide microarray", "method": "(§1) The overnight incubation was followed by three washings with each of PBS buffer pH 7.5 and water. The microarrays were then scanned using ArrayWorx-Microarray Scanner.\n(§2) The SPOT recognition software package ArrayPro was used for data analysis. The mean of signal intensities from 3 identical subarrays on each microarray image was used for data evaluation."}, "[3]": {"biological_target": "T2, human CD26-derived 13 mer peptide 25 (human)", "T2 peptide": "DEFGHSINDYSIS", "experiment": "peptide microarray", "method": "as §1, §2"}, "[4]": {"biological_target": "T3, human CD26-derived 13 mer peptide 24 (human)", "T3 peptide": "TFDEFGHSINDYS", "experiment": "peptide microarray", "method": "as §1, §2"}, "[5]": {"biological_target": "T4, human CD26-derived 13 mer peptide 14 (human)", "T4 peptide": "NNILVFNAEYGNS", "experiment": "peptide microarray", "method": "as §1, §2"}, "[6]": {"biological_target": "T5, human CD26-derived 13 mer peptide 9 (human)", "T5 peptide": "SDHEYLYKQENNI", "experiment": "peptide microarray", "method": "as §1, §2"}, "[7]": {"biological_target": "T6, human CD26-derived 13 mer peptide 21 (human)", "T6 peptide": "VFLENSTFDEFGH", "experiment": "peptide microarray", "method": "as §1, §2"}, "[8]": {"biological_target": "T7, human CD26-derived 13 mer peptide 120 (human)", "T7 peptide": "QITAPASMLIGDH", "experiment": "peptide microarray", "method": "as §1, §2"}, "[9]": {"biological_target": "T8, human CD26-derived 13 mer peptide 46 (human)", "T8 construct": "also called NKRQL1TEERIPN", "T8 peptide": "NKRQLITEERIPN", "experiment": "peptide microarray", "method": "as §1, §2"}, "[10]": {"biological_target": "T9, human CD26-derived 13 mer peptide 119 (human)", "T9 peptide": "SIQITAPASMLIG", "experiment": "peptide microarray", "method": "as §1, §2"}, "[11]": {"biological_target": "T10, human CD26-derived 13 mer peptide 111 (human)", "T10 peptide": "FFVVNTDSLSSVT", "experiment": "peptide microarray", "method": "as §1, §2"}, "[12]": {"biological_target": "T11, human CD26-derived 13 mer peptide 116 (human)", "T11 peptide": "SVTNATSIQITAP", "experiment": "peptide microarray", "method": "as §1, §2"}, "[13]": {"biological_target": "T12, human CD26-derived 13 mer peptide 27 (human)", "T12 peptide": "HSINDYSISPDGQ", "experiment": "peptide microarray", "method": "as §1, §2"}, "[14]": {"biological_target": "T13, human CD26-derived 13 mer peptide 71 (human)", "T13 peptide": "TGKEDIIYNGITD", "experiment": "peptide microarray", "method": "as §1, §2"}, "[15]": {"biological_target": "T14, human CD26-derived 13 mer peptide 103 (human)", "T14 peptide": "VRVPYPKAGAVNP", "experiment": "peptide microarray", "method": "as §1, §2"}, "[16]": {"biological_target": "T15, human CD26-derived 13 mer peptide 105 (human)", "T15 peptide": "YPKAGAVNPTVKF", "experiment": "peptide microarray", "method": "as §1, §2"}, "[17]": {"biological_target": "T16, human CD26-derived 13 mer peptide 44 (human)", "T16 peptide": "IYDLNKRQLITEE", "experiment": "peptide microarray", "method": "as §1, §2"}, "[18]": {"biological_target": "T17, human CD26-derived 13 mer peptide 16 (human)", "T17 peptide": "VFNAEYGNSSVFL", "experiment": "peptide microarray", "method": "as §1, §2"}, "[19]": {"biological_target": "T18, human CD26-derived 13 mer peptide 110 (human)", "T18 peptide": "VKFFVVNTDSLSS", "experiment": "peptide microarray", "method": "as §1, §2"}, "[20]": {"biological_target": "T19, human CD26-derived 13 mer peptide 47 (human)", "T19 peptide": "RQLITEERIPNNT", "experiment": "peptide microarray", "method": "as §1, §2"}, "[21]": {"biological_target": "T20, human CD26-derived 13 mer peptide 114 (human)", "T20 peptide": "DSLSSVTNATSIQ", "experiment": "peptide microarray", "method": "as §1, §2"}, "[22]": {"biological_target": "T21, human CD26-derived 13 mer peptide 32 (human)", "T21 peptide": "DGQFILLEYNYVK", "experiment": "peptide microarray", "method": "as §1, §2"}, "[23]": {"biological_target": "T22, human CD26-derived 13 mer peptide 118 (human)", "T22 peptide": "ATSIQITAPASML", "experiment": "peptide microarray", "method": "as §1, §2"}, "[24]": {"biological_target": "T23, human CD26-derived 13 mer peptide 45 (human)", "T23 peptide": "DLNKRQLITEERI", "experiment": "peptide microarray", "method": "as §1, §2"}, "[25]": {"biological_target": "T24, human CD26-derived 13 mer peptide 19 (human)", "T24 peptide": "GNSSVFLENSTFD", "experiment": "peptide microarray", "method": "as §1, §2"}, "[26]": {"biological_target": "T25, human CD26-derived 13 mer peptide 87 (human)", "T25 peptide": "GTFLAYAQFNDTE", "experiment": "peptide microarray", "method": "as §1, §2"}, "[27]": {"biological_target": "T26, human CD26-derived 13 mer peptide 22 (human)", "T26 peptide": "LENSTFDEFGHSI", "experiment": "peptide microarray", "method": "as §1, §2"}, "[28]": {"biological_target": "T27, human CD26-derived 13 mer peptide 23 (human)", "T27 peptide": "NSTFDEFGHSIND", "experiment": "peptide microarray", "method": "as §1, §2"}, "[29]": {"biological_target": "T28, human CD26-derived 13 mer peptide 18 (human)", "T28 peptide": "EYGNSSVFLENST", "experiment": "peptide microarray", "method": "as §1, §2"}, "[30]": {"biological_target": "T29, Purified recombinant human CD26 (rhDipeptidyl peptidase IV), R&D Systems CAT #1180-SE (human, UniProt P27487 29-766)", "T29 construct": "Bought recombinant protein; also called hu-CD26; soluble human CD26", "T29 sequence (P27487 29-766 limits assumed)": "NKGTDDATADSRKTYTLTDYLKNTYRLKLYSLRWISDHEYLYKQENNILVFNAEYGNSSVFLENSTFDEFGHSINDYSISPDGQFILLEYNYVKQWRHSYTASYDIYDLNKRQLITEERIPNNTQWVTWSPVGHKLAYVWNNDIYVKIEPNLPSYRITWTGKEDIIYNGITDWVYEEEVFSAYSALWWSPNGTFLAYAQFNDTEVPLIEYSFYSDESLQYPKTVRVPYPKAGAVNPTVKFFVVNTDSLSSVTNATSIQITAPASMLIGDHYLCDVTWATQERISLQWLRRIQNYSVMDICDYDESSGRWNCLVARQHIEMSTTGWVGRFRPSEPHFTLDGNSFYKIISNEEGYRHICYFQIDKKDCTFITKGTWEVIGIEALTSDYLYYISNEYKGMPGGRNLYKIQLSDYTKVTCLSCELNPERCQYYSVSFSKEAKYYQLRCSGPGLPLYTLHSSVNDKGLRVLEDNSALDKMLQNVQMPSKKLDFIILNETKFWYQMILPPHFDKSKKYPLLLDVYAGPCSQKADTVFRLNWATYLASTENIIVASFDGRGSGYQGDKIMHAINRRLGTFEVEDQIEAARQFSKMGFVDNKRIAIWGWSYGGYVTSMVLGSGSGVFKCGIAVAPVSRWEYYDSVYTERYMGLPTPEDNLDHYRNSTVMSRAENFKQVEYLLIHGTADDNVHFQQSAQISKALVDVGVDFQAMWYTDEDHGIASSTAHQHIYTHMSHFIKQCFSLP", "experiment": "SPR (Biacore), Fab", "method": "(§3) Fabs produced in E. coli as described below were diluted in PBS in a concentration of ˜0.5 μM for the assay. A typical recording included a 3 minute period of injection of the Fab followed by a period of 15 minutes of dissociation, and analysis was performed based on the raw data of the binding curves accordingly.\nThe CD26 binding partner was as shown below."}, "[31]": {"biological_target": "T29, Purified recombinant human CD26 …", "experiment": "SPR (Biacore), Fab", "method": "as §3", "remark": "listed apart in the source"}, "[32]": {"biological_target": "T29, Purified recombinant human CD26 …", "experiment": "SPR (Biacore), CD26 preoccupied by the Fab; competitor 14D10 ascites", "source_text": "A specificity analysis of selected Fabs comprising pairs of variant VH and VL sequences was done. […] The analysis was done using Biacore® as described in Example 1."}, "[33]": {"biological_target": "T29, Purified recombinant human CD26 …", "experiment": "SPR (Biacore), Fab", "remark": "listed apart in the source"}, "[34]": {"biological_target": "T29, Purified recombinant human CD26 …", "experiment": "SPR (Biacore), CD26 on CM5 chip, Fab injected", "method": "as §3"}, "[35]": {"biological_target": "T29, Purified recombinant human CD26 …", "experiment": "SPR (Biacore), Fab", "remark": "listed apart in the source"}}, "note": "“And” between values parts separate entries of the source, which are not always exact repeats. Equal values may be shown once."}
{"binder": "B1", "values": [{"measurement": "percent inhibition, MTT assay, Jurkat CD26+ cells, 0.05 ug/ml", "setting": "[1]", "result": 3.7, "unit": "%"}, {"measurement": "percent inhibition, MTT assay, Jurkat CD26+ cells, 0.25 ug/ml", "setting": "[1]", "result": 9.6, "unit": "%"}, {"measurement": "percent inhibition, MTT assay, Jurkat CD26+ cells, 0.5 ug/ml", "setting": "[1]", "result": 9.2, "unit": "%"}, {"measurement": "percent inhibition, MTT assay, Jurkat CD26+ cells, 2.5 ug/ml", "setting": "[1]", "result": 16.6, "unit": "%"}, {"measurement": "percent inhibition, MTT assay, Jurkat CD26+ cells, 5 ug/ml", "setting": "[1]", "result": 15.9, "unit": "%"}, {"measurement": "Mean Signal Value", "setting": "[2]", "result": 0}, {"measurement": "Mean Signal Value", "setting": "[3]", "result": 0}, {"measurement": "Mean Signal Value", "setting": "[4]", "result": 0}, {"measurement": "Mean Signal Value", "setting": "[5]", "result": 0}, {"measurement": "Mean Signal Value", "setting": "[6]", "result": 0}, {"measurement": "Mean Signal Value", "setting": "[7]", "result": 0}, {"measurement": "Mean Signal Value", "setting": "[8]", "result": 0}, {"measurement": "Mean Signal Value", "setting": "[9]", "result": 0}, {"measurement": "Mean Signal Value", "setting": "[10]", "result": 0}, {"measurement": "Mean Signal Value", "setting": "[11]", "result": 0}, {"measurement": "Mean Signal Value", "setting": "[12]", "result": 0}, {"measurement": "Mean Signal Value", "setting": "[13]", "result": 0}, {"measurement": "Mean Signal Value", "setting": "[14]", "result": 0}, {"measurement": "Mean Signal Value", "setting": "[15]", "result": 0}, {"measurement": "Mean Signal Value", "setting": "[16]", "result": 0}, {"measurement": "Mean Signal Value", "setting": "[17]", "result": 0}, {"measurement": "Mean Signal Value", "setting": "[18]", "result": 0}, {"measurement": "Mean Signal Value", "setting": "[19]", "result": 0}, {"measurement": "Mean Signal Value", "setting": "[20]", "result": 0}, {"measurement": "Mean Signal Value", "setting": "[21]", "result": 0}, {"measurement": "Mean Signal Value", "setting": "[22]", "result": 0}, {"measurement": "Mean Signal Value", "setting": "[23]", "result": 0}, {"measurement": "Mean Signal Value", "setting": "[24]", "result": 0}, {"measurement": "Mean Signal Value", "setting": "[25]", "result": 0}, {"measurement": "Mean Signal Value", "setting": "[26]", "result": 0}, {"measurement": "Mean Signal Value", "setting": "[27]", "result": 0}, {"measurement": "Mean Signal Value", "setting": "[28]", "result": 0}, {"measurement": "Mean Signal Value", "setting": "[29]", "result": 0}]}
{"binder": "B2", "values": [{"measurement": "Kd", "setting": "[30]", "result": 1.63, "unit": "nM"}, {"measurement": "Kd", "setting": "[31]", "result": 1.63, "unit": "nM"}, {"measurement": "percent decrease in binding of 14D10 to CD26", "setting": "[32]", "result": "≥ 80", "unit": "%"}, {"measurement": "Kd", "setting": "[33]", "result": "1.63 nM and 1.6 nM"}, {"measurement": "Kd", "setting": "[34]", "result": 1.63, "unit": "nM"}, {"measurement": "Kd", "setting": "[35]", "result": 1.63, "unit": "nM"}]}
